Target: human IGF2R extra-cellular domains 1-15 fused at the C-terminal to rat CD4 (domains 3 + 4), biotin acceptor … (human, UniProt P11717 41-2304, biotin on the BirA acceptor tag)
Experiment: SPR

B1: bovine β-glucuronidase (290 KD) (enzyme)
chain: LQGGMLYPRESRSRERKELDGLWSFRADFSDNRRQGFEQQWYRAPLRESGPTLDMPVPSSFNDVGQDGQLRSFVGWVWYEREITLPQRWTEDLGTRVVLRIGSAHYYAIVWVNGVHVLEHEGGHLPFEADISKLVQSGPLSSCRITIAINNTLSPHTLPPGTILYKTDPSMYPKGYFVQNTKFDFFNYAGLHRSVLLYTTPTTYIDDITVTTDMDQDIGLVNYQIIVQGSDHFQVDVSLLDEEGKVMAKGAGAEGQLQVPSAHLWWPYLMHEHPAYLYSLEVKLTAQTAVGPVSDFYTLPVGIRTVAVTKSQFLINGKPFYFRGVNKHEDADIRGKGFDWPLLVKDFNLLRWLGANAFRTSHYPYSEEVLQLCDRYGIVVIDESPGVGIVLVESFSNVSLQHHLEVMEEMIRRDKNHPAVVMWSLANEPASFLKPAGYYFKTLIAHTKALDPSRPVTFVTNTNYEADLGAPYVDIICVNSYYSWYHDYGHMEVIQLQLATQFENWYKAYQKPMIQSEYGADAIEGFHEDPPLMFSEEYQKGLLQQYHVVLDQKRKEYVVGELIWNFADFMTNQSPVRMIGNRKGIFTRQRQPKSAAFLLRERYWKLANETRYQRSAVTSQCVGSGLFTV
modifications: mannose 6-phosphate (M6P-beta-glucuronidase)
In the case of B1, the Kd is reported as 52.3 nM.

B2: human glu-plasminogen (88 KD) (natural protein)
chain: EPLDDYVNTQGASLFSVTKKQLGAGSIEECAAKCEEDEEFTCRAFQYHSKEQQCVIMAENRKSSIIIRMRDVVLFEKKVYLSECKTGNGKNYRGTMSKTKNGITCQKWSSTSPHRPRFSPATHPSEGLEENYCRNPDNDPQGPWCYTTDPEKRYDYCDILECEEECMHCSGENYDGKISKTMSGLECQAWDSQSPHAHGYIPSKFPNKNLKKNYCRNPDRELRPWCFTTDPNKRWELCDIPRCTTPPPSSGPTYQCLKGTGENYRGNVAVTVSGHTCQHWSAQTPHTHNRTPENFPCKNLDENYCRNPDGKRAPWCHTTNSQVRWEYCKIPSCDSSPVSTEQLAPTAPPELTPVVQDCYHGDGQSYRGTSSTTTTGKKCQSWSSMTPHRHQKTPENYPNAGLTMNYCRNPDADKGPWCFTTDPSVRWEYCNLKKCSGTEASVVAPPPVVLLPDVETPSEEDCMFGNGKGYRGKRATTVTGTPCQDWAAQEPHRHSIFTPETNPRAGLEKNYCRNPDGDVGGPWCYTTNPRKLYDYCDVPQCAAPSFDCGKPQVEPKKCPGRVVGGCVAHPHSWPWQVSLRTRFGMHFCGGTLISPEWVLTAAHCLEKSPRPSSYKVILGAHQEVNLEPHVQEIEVSRLFLEPTRKDIALLKLSSPAVITDKVIPACLPSPNYVVADRTECFITGWGETQGTFGAGLLKEAQLPVIENKVCNRYEFLNGRVQSTELCAGHLAGGTDSCQGDSGGPLVCFEKDKYILQGVTSWGLGCARPNKPGVYVRVSRFVTWIEGVMRNN
Binder B2 has a Kd of 43.5 nM.
